Measured values taken from the supplement of paper PMC7877785.
± gives the uncertainty stated by the source.

Experiment: self-splicing fitness, log relative to wild type (ln ratio); higher = more splicing; Tetrahymena group I intron in knt gene, E. coli kanamycin selection, DiMSum; sequences stand for … in CUCUCU…GGAGGGAAAAGUUAUCAGGCAUGCACCUGGUAGCUAGUCUUUAAACCAAUAGAUUGCAUCGGUUUAAAAGGCAAGACCGUCAAAUUGCGGGAAAGGGGUCAACAGCCGUUCAGUACCAAGUCUCAGGGGAAACUUUGAGAUGGCCUUGCAAAGGGUAUGGUAAUAAGCUGACGGACAUGGUCCUAACCACGCAGCCAAGUCCUAAGUCAACAGAUCUUCUGUUGAUAUGGAUGCAGUUCACAGACUAAAUGUCGGUCGGGGAAGAUGUAUUCUUCUCAUAAGAUAUAGUCGGACCUCUCCUUAAUGGGAGCUAGCGGAUGAAGUGAUGCAACACUGGAGCCGCUGGGAACUAAUUUGUAUGCGAAAGUAUAUUGAUUAGUUUUGGAGUACUCGUGGUCG
Procedure, shortened: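 Fitness was computed with DiMSum as the error-weighted combination of replicate fold changes, kanamycin versus none, each normalised to wild type. The library randomised all eight intron nucleotides of the P1ex region, with the intron placed in the knt kanamycin-resistance gene on pET-22b(+) in E. coli BL21(DE3). Six replicate transformations were grown overnight at 37°C or 30°C on LB agar with or without 25 μg/mL kanamycin, plus 100 μg/mL carbenicillin, 50 μM IPTG and 0.2% rhamnose. Pooled colonies were amplicon-sequenced on an Illumina HiSeq 2500.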

## UGUUAGCAAUAUUACGUUUC
30 °C
  self-splicing fitness (ln): -3.91 ± 0.46
37 °C
  self-splicing fitness (ln): -2.06 ± 0.33

## UUAAAGCAAUAUUACGAAGG
30 °C
  self-splicing fitness (ln): -0.779 ± 0.14
37 °C
  self-splicing fitness (ln): -1.09 ± 0.18

## UUAAAGCAAUAUUACGACCG
30 °C
  self-splicing fitness (ln): -0.379 ± 0.12
37 °C
  self-splicing fitness (ln): 0.397 ± 0.16

## UUAAAGCAAUAUUACGAGGA
30 °C
  self-splicing fitness (ln): -1.84 ± 0.13
37 °C
  self-splicing fitness (ln): -0.545 ± 0.16

## UUAAAGCAAUAUUACGAGUG
30 °C
  self-splicing fitness (ln): -0.826 ± 0.058
37 °C
  self-splicing fitness (ln): -0.0213 ± 0.08

## UUAAAGCAAUAUUACGCAUA
30 °C
  self-splicing fitness (ln): -0.633 ± 0.072
37 °C
  self-splicing fitness (ln): 0.164 ± 0.11

## UUAAAGCAAUAUUACGCCCC
30 °C
  self-splicing fitness (ln): -0.451 ± 0.27
37 °C
  self-splicing fitness (ln): 0.901 ± 0.38

## UUAAAGCAAUAUUACGCCCU
30 °C
  self-splicing fitness (ln): -0.437 ± 0.11
37 °C
  self-splicing fitness (ln): 0.33 ± 0.14

## UUAAAGCAAUAUUACGCCUG
30 °C
  self-splicing fitness (ln): 0.63 ± 0.16
37 °C
  self-splicing fitness (ln): 1 ± 0.17

## UUAAAGCAAUAUUACGCUAC
30 °C
  self-splicing fitness (ln): -3.55 ± 0.26
37 °C
  self-splicing fitness (ln): -1.91 ± 0.2

## UUAAAGCAAUAUUACGGAUA
30 °C
  self-splicing fitness (ln): -0.925 ± 0.13
37 °C
  self-splicing fitness (ln): -0.197 ± 0.16

## UUAAAGCAAUAUUACGGCAA
30 °C
  self-splicing fitness (ln): 0.101 ± 0.12
37 °C
  self-splicing fitness (ln): 0.186 ± 0.16

## UUAAAGCAAUAUUACGGCGU
30 °C
  self-splicing fitness (ln): -0.257 ± 0.068
37 °C
  self-splicing fitness (ln): 0.33 ± 0.09

## UUAAAGCAAUAUUACGGGUU
30 °C
  self-splicing fitness (ln): -3.04 ± 0.15
37 °C
  self-splicing fitness (ln): -1.46 ± 0.13

## UUAAAGCAAUAUUACGGUUG
30 °C
  self-splicing fitness (ln): -1.13 ± 0.071
37 °C
  self-splicing fitness (ln): -0.199 ± 0.089

## UUAAAGCAAUAUUACGUAAG
30 °C
  self-splicing fitness (ln): -0.67 ± 0.082
37 °C
  self-splicing fitness (ln): -0.258 ± 0.11

## UUAAAGCAAUAUUACGUAUC
30 °C
  self-splicing fitness (ln): -2.17 ± 0.12
37 °C
  self-splicing fitness (ln): -1.87 ± 0.16

## UUAAAGCAAUAUUACGUCUG
30 °C
  self-splicing fitness (ln): 0.0385 ± 0.075
37 °C
  self-splicing fitness (ln): 0.255 ± 0.096

## UUAAAGCAAUAUUACGUUAG
30 °C
  self-splicing fitness (ln): -0.59 ± 0.095
37 °C
  self-splicing fitness (ln): -0.125 ± 0.097

## UUACAGCAAUAUUACGAAGC
37 °C
  self-splicing fitness (ln): -1.41 ± 0.4

## UUACAGCAAUAUUACGACAU
30 °C
  self-splicing fitness (ln): -1.971 ± 0.014
37 °C
  self-splicing fitness (ln): -1.02 ± 0.033

## UUACAGCAAUAUUACGACUU
30 °C
  self-splicing fitness (ln): -1.06 ± 0.11
37 °C
  self-splicing fitness (ln): -0.932 ± 0.11

## UUACAGCAAUAUUACGAGCU
30 °C
  self-splicing fitness (ln): -3.55 ± 0.31
37 °C
  self-splicing fitness (ln): -3.12 ± 0.34

## UUACAGCAAUAUUACGAGUA
30 °C
  self-splicing fitness (ln): -1.5 ± 0.14
37 °C
  self-splicing fitness (ln): -0.933 ± 0.11

## UUACAGCAAUAUUACGAUUA
30 °C
  self-splicing fitness (ln): -0.238 ± 0.094
37 °C
  self-splicing fitness (ln): -0.0645 ± 0.089

## UUACAGCAAUAUUACGCAGC
30 °C
  self-splicing fitness (ln): -4.38 ± 0.26
37 °C
  self-splicing fitness (ln): -3.01 ± 0.16

## UUACAGCAAUAUUACGCCUU
30 °C
  self-splicing fitness (ln): -2.35 ± 0.22
37 °C
  self-splicing fitness (ln): -0.83 ± 0.17

## UUACAGCAAUAUUACGGAGA
30 °C
  self-splicing fitness (ln): -1.79 ± 0.1
37 °C
  self-splicing fitness (ln): -1.11 ± 0.13

## UUACAGCAAUAUUACGGAGG
30 °C
  self-splicing fitness (ln): -2.31 ± 0.22
37 °C
  self-splicing fitness (ln): -2.1 ± 0.36

## UUACAGCAAUAUUACGGGCC
30 °C
  self-splicing fitness (ln): -3.28 ± 0.19
37 °C
  self-splicing fitness (ln): -3.55 ± 0.42

## UUACAGCAAUAUUACGGGGU
30 °C
  self-splicing fitness (ln): -4.73 ± 0.22
37 °C
  self-splicing fitness (ln): -3.21 ± 0.17

## UUACAGCAAUAUUACGGGUG
30 °C
  self-splicing fitness (ln): -1.05 ± 0.061
37 °C
  self-splicing fitness (ln): -0.414 ± 0.077

## UUACAGCAAUAUUACGGUGU
30 °C
  self-splicing fitness (ln): -4.36 ± 0.46
37 °C
  self-splicing fitness (ln): -2.23 ± 0.21

## UUACAGCAAUAUUACGUAAG
30 °C
  self-splicing fitness (ln): -0.248 ± 0.068
37 °C
  self-splicing fitness (ln): -0.257 ± 0.097

## UUACAGCAAUAUUACGUACA
30 °C
  self-splicing fitness (ln): -0.278 ± 0.087
37 °C
  self-splicing fitness (ln): 0.137 ± 0.1

## UUACAGCAAUAUUACGUACU
30 °C
  self-splicing fitness (ln): -0.865 ± 0.1
37 °C
  self-splicing fitness (ln): -0.831 ± 0.096

## UUACAGCAAUAUUACGUAGA
30 °C
  self-splicing fitness (ln): -1.01 ± 0.067
37 °C
  self-splicing fitness (ln): -0.372 ± 0.081

## UUACAGCAAUAUUACGUCCA
30 °C
  self-splicing fitness (ln): -0.325 ± 0.096
37 °C
  self-splicing fitness (ln): -0.181 ± 0.11

## UUACAGCAAUAUUACGUGGU
30 °C
  self-splicing fitness (ln): -3.33 ± 0.13
37 °C
  self-splicing fitness (ln): -2.36 ± 0.13

## UUACAGCAAUAUUACGUGUC
30 °C
  self-splicing fitness (ln): -3.93 ± 0.17
37 °C
  self-splicing fitness (ln): -3.21 ± 0.21

## UUACAGCAAUAUUACGUUCC
30 °C
  self-splicing fitness (ln): -3.34 ± 0.26
37 °C
  self-splicing fitness (ln): -2.22 ± 0.46

## UUACAGCAAUAUUACGUUGG
30 °C
  self-splicing fitness (ln): -2.6 ± 0.12
37 °C
  self-splicing fitness (ln): -1.69 ± 0.13
